PMC7841142
Several values for one entry are separate records, joined by “and”; a condition that tells them apart may be missing. Equal values may be shown once.

T1: Fgfr1a-IIIc, membrane-bound, Myc- and 6x His-tagged (complete coding sequence), on CHO-K1 cells (zebrafish), Q90Z00
T1 chain: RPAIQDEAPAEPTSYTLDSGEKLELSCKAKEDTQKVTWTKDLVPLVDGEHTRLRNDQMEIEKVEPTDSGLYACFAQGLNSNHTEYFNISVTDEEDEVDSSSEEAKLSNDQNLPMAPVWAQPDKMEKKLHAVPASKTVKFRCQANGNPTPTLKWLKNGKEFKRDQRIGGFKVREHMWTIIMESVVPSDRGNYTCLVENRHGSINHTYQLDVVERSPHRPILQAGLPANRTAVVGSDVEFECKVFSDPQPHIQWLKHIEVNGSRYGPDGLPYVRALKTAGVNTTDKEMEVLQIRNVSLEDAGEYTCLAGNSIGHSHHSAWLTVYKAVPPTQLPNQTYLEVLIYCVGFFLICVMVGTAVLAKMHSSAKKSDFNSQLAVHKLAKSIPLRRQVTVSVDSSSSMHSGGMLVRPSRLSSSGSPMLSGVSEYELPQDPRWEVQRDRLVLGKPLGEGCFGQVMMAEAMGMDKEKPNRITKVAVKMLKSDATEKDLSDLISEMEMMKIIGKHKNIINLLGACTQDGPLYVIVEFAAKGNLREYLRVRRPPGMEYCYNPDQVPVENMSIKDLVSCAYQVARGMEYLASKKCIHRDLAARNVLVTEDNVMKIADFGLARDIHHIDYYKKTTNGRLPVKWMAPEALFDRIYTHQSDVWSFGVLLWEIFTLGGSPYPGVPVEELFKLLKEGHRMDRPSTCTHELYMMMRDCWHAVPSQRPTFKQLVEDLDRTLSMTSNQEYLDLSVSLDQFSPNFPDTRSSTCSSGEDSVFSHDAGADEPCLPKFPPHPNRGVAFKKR

B1: soluble Ncam1b-Fc (extracellular part of Ncam1b with hIgG-Fc-Tag) (Fc fusion)
chain: LQVDITPAHGEISVGESRFFLCEVIGGAKEIDWFAPAGEKIEPGRPDISVIRNDETSSTLTIYNAKVDNAGTYRCVASSGDQDAEATVNLKIYQKITFTNVPSPQEFTEGDNAIIVCDVISSPPPTVLWKYKGAKIQFDKDVRFKTLSNNHLQIRGIRKTDEGVYTCEGRIKARGEVDFRSIKVVVNVLPTIRIRQAETNATADMGFSTLLACDPDGFPEPIVTWRRNNAPLESGNKYSFNEDGSEMTVLDVTKLDEGDYTCIAKNKAGESEQELSLKVFVQPKITYLESQTTTEMDEQVTLTCEATGDPTPTITWSFGTRVFTEGEQASWTRPEQHKGPDGEVLVRSDARVSSLTLKYPQYTDAGQYLCTARNAIGETVQPVSLEVRYAPKILGSVAVYTWEGNPANISCEVLAHPSDVSITWLRDGFQLPNANTSNIKIHNTPSASYLEVNPESQSDFGNYNCTASNEIGTESREFIMIPADVPSAPSIGEVQPYSSTAQVLFEEPESTGGVPVLKYRAEWRAVGRGKWVQRVYEVKDGLSSVTVTGLKPETDYEVKMSAINGKGEGDSSPSMVFKTEHVQGEPSPPILEGTLQPKGNSLKVKWIKQDDGGSPITHYLVRYKAREDSEWKPEIRLPSGSEYVMLIGLDWDTEYDVFVVAENQQGKSKPGTLTFRTSSEPTATTDSMEDGPGLNTG
modifications: not checked

How the values were obtained:
[1] = molecular target: Ncam1b, membrane-bound, Myc- and 6x His-tagged (complete coding sequence), on CHO-K1 cells (zebrafish); test: immunostaining of cells or tissue; cell overlay assay: transfected CHO-K1 cells (membrane-bound His-tagged protein) on fibronectin-coated coverslips incubated with 20 μg/ml soluble Fc-tagged protein for 1 h at room temperature, washed, fixed, stained with anti-His and anti-hFcγ; read out as binding coefficient (percent of transfected cells co-labelled) and as fluorescence intensity of transfected vs. untransfected cells
[2] = molecular target: Ncam1a, Myc- and 6x His-tagged (complete coding sequence), in Hek293 cells (zebrafish); test: co-IP; Hek293 cells co-transfected with Myc/His-tagged Ncam1a or Ncam1b and FLAG-tagged Fgfr1a-IIIb or -IIIc; lysates precipitated with anti-His antibody and ProteinA beads, blotted with biotinylated FLAG-antibody; band density by Fiji, three independent experiments
[3] = molecular target: Ncam1b, Myc- and 6x His-tagged (complete coding sequence), in Hek293 cells (zebrafish); test: as above
[4] = molecular target: Fgfr1a-IIIb, membrane-bound, Myc- and 6x His-tagged (complete coding sequence, exon 9.1 variant), on CHO-K1 cells (zebrafish); test: immunostaining of cells or tissue; cell overlay assay: transfected CHO-K1 cells (membrane-bound His-tagged protein) on fibronectin-coated coverslips incubated with 20 μg/ml soluble Fc-tagged protein for 1 h at room temperature, washed, fixed, stained with anti-His and anti-hFcγ; read out as binding coefficient (percent of transfected cells co-labelled) and as fluorescence intensity of transfected vs. untransfected cells
[5] = molecular target: T1, Fgfr1a-IIIc, membrane-bound, Myc- and …; test: immunostaining of cells or tissue; cell overlay assay: transfected CHO-K1 cells (membrane-bound His-tagged protein) on fibronectin-coated coverslips incubated with 20 μg/ml soluble Fc-tagged protein for 1 h at room temperature, washed, fixed, stained with anti-His and anti-hFcγ; read out as binding coefficient (percent of transfected cells co-labelled) and as fluorescence intensity of transfected vs. untransfected …

Ncam1a, Myc- and 6x His-tagged (complete coding sequence), in Hek293 cells (zebrafish), sequence (main, as listed by the source): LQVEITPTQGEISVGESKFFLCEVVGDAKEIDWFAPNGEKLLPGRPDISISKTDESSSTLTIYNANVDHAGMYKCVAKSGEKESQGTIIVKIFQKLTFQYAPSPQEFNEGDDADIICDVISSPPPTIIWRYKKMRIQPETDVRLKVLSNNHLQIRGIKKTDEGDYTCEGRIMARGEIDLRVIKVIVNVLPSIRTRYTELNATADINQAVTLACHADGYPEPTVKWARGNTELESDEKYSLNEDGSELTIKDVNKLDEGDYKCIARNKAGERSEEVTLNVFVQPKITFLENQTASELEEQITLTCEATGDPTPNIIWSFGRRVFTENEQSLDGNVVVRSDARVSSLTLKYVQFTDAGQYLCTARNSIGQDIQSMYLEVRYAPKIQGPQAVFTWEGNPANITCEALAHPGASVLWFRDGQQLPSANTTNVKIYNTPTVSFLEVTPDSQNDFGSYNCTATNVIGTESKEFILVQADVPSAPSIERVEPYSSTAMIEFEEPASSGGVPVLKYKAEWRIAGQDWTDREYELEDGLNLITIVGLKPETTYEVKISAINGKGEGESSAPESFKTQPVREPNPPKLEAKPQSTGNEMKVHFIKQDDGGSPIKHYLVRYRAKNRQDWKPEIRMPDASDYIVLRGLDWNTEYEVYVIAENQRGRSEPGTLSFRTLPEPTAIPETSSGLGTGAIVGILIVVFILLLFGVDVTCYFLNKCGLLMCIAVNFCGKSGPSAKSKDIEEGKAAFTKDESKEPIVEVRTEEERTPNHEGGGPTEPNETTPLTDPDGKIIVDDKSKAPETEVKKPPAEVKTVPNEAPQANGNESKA

| Molecule | binding coefficient (percent of transfected cells co-labelled for the soluble partner) [1] [%] | band density (Intensity Density) of co-precipitated FLAG-tagged receptor (Intensity Density) [2] | band density (Intensity Density) of co-precipitated FLAG-tagged receptor (Intensity Density) [3] | other results |
| --- | --- | --- | --- | --- |
| soluble Fgfr1a-IIIb-Fc (extracellular part of Fgfr1a-IIIb with hIgG-Fc-Tag) (Fc fusion) | 90 |  |  |  |
| Fgfr1a-IIIc, FLAG-tagged (complete coding sequence), in Hek293 cells (from UniProt Q90Z00 27-810) (receptor) |  | 117000 | 138000 |  |
| soluble Ncam1b-Fc (extracellular part of Ncam1b with hIgG-Fc-Tag) (Fc fusion) |  |  |  | binding coefficient (percent of transfected cells co-labelled for the soluble partner) [4]: 90%; fluorescence intensity of bound soluble Ncam1b, transfected over untransfected cells [4]: 80 % higher |
| soluble Fgfr1a-IIIc-Fc (extracellular part of Fgfr1a-IIIc with hIgG-Fc-Tag) (from UniProt Q90Z00 27-363) (Fc fusion) | 60 |  |  |  |
| Fgfr1a-IIIb, FLAG-tagged (complete coding sequence), in Hek293 cells (receptor) |  | 89500 | 170000 and 203000 |  |
| B1 |  |  |  | binding coefficient (percent of transfected cells co-labelled for the soluble partner) [5]: 60% |
